# Assay results from patent US20180155451A1 (published 2018).
# What was measured:
# [1] = molecular target: T1, FcγRIIIa extracellular domain with C-terminal His tag (human, UniProt P08637 17-208); assay: SPR (Biacore), ratio of KD values for FcγRIIIa
# T1 construct: extracellular domain; also called FcgRIIIa; CD16A
# Text: GpH7-A57 (SEQ ID NO: 40) resulting from the introduction of all of S239D, A330L, and I332E into GpH7-A5; GpH7-B78 (SEQ ID NO: 41) resulting from the introduction of all of S239D, A330L, and I332E into GpH7-B3; GpH7-TA7 (SEQ ID NO: 31) resulting from the introduction of all of L234Y, G236W, and S298A into GpH7-A5; and GpH7-TA45 (SEQ ID NO: 32) resulting from the introduction of all of L234Y, G236W, and S298A into GpH7-B3. […] The prepared antibodies were compared for the FcγRIIIa-binding activity using, as an indicator, KD for FcγRIIIa that was determined according to the method described in Reference Example 2.
# (§1) Analysis of interaction between objective antibody and the FcγR was carried out using Biacore T100 (GE Healthcare). HBS-EP+ (GE Healthcare) was used as the running buffer, and the measurement temperature was set to 25° C. Chips produced by immobilizing the antigen peptide by the amine coupling method to a Series S Sencor Chip CM5 (GE Healthcare), or alternatively, chips produced by allowing preliminarily biotinylated antigen peptides to interact with and immobilize onto a Series S Sensor Chip SA (certified) (GE Healthcare) were used. Antibodies of interest were captured onto an antigen peptide-immobilized chip, and allowed to interact to each FcγR diluted with running buffer. To regenerate and repeatedly use the chip, the antibodies captured on the chip were washed off by reacting 10 mM glycine-HCl, pH 1.5.
# [2] = molecular target: T1, FcγRIIIa extracellular domain with …; assay: SPR (Biacore), antibody captured on antigen peptide chip, FcγR as analyte
# Experimental: Specifically, GpH7-TA7 and GpH7-TA45 (SEQ ID NO: 32) resulting from the introduction of L234Y, G236W, and S298A into GpH7-A5 and GpH7-B3, respectively, were prepared according to the method described in Reference Example 1. […] These antibodies were compared for the FcγRIIIa binding according to the method described in Reference Example 2 (Table 10).
# as §1
# [3] = molecular target: T1, FcγRIIIa extracellular domain with …; assay: as above; remark: listed apart in the source
# Experimental: GpH7-TA8 (SEQ ID NO: 33) and GpH7-B12 (SEQ ID NO: 12) resulting from the introduction of P329R into GpH7-TA7 and GpH7-B3, respectively, were prepared according to the method described in Reference Example 1.
# as §1
# [4] = molecular target: T1, FcγRIIIa extracellular domain with …; assay: SPR (Biacore), antibody captured, FcγRIIIa as analyte, 1:1 Langmuir kinetic fit
# Experimental: The prepared antibodies were compared for the FcγRIIIa-binding activity using, as an indicator, KD for FcγRIIIa that was determined according to the method described in Reference Example 2.
# as §1
# The FcγR-binding activity of each antibody was assessed primarily using as an indicator the FcγR-binding activity and dissociation constant for FcγR.
# T1 sequence (P08637 17-208): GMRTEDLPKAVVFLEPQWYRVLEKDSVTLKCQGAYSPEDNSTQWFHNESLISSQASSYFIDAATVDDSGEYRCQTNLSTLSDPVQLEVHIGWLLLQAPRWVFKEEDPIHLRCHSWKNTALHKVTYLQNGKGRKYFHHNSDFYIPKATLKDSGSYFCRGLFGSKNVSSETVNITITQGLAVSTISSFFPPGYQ
Binder,KD ratio 1 (KD of GpH7-G1d/GpL16-k0 divided by KD of the antibody) [1] [fold],KD ratio 2 (KD of GpH7-A5/GpH7-B3/GpL16-k0 divided by KD of the antibody) [1] [fold],FcγR BINDING ACTIVITY (relative FcγRIIIa binding) [2],FcγRIIIa BINDING ACTIVITY (relative) [3],Kd [4] [nM]
"GpH7-A5/GpH7-B3/GpL16-k0 (antibody, human IgG1, kappa, also called HeCon Ab; control heterodimerized antibody) heavy 1: not shown heavy 2: not shown light: DIVMTQSPLSLPVTPGEPASISCQASESLVHSNRNTYLHWYLQKPGQSPQLLIYKVSNRFSGVPDRFSGSGSGTDFTLKISRVEAEDVGVYYCSQNTHVPPTFGQGTKVEIERTVAAPSVFIFPPSDEQLKSGTASVVCLLNNFYPREAKVQWKVDNALQSGNSQESVTEQDSKDSTYSLSSTLTLSKADYEKHKVYACEVTHQGLSSPVTKSFNRGEC",0.75,1,"100 relative, GpH7-A5/GpH7-B3/GpL16-k0 = 100","100 relative, GpH7-A5/GpH7-B3/GpL16-k0 = 100",1600
"GpH7-TA7/GpH7-B12/GpL16-k0 (antibody, human IgG1, kappa, Heterodimerized anti-glypican-3 IgG1 variant) heavy 1: QVQLVQSGAEVKKPGASVTVSCKASGYTFTDYEMHWIRQPPGEGLEWIGAIDPKTGDTAYSESFQDRVTLTADKSTSTAYMELSSLTSEDTAVYYCTRFYSYTYWGQGTLVTVSSASTKGPSVFPLAPSSKSTSGGTAALGCLVKDYFPEPVTVSWNSGALTSGVHTFPAVLQSSGLYSLSSVVTVPSSSLGTQTYICNVNHKPSNTKVDKKVEPKSCDKTHTCPPCPAPEYLWGPSVFLFPPKPKDTLMISRTPEVTCVVVDVSHEDPEVKFNWYVDGVEVHNAKTKPREEQYNATYRVVSVLTVLHQDWLNGKEYKCKVSNKALPAPIEKTISKAKGQPREPQVYTLPPSRKELTKNQVSLTCLVKGFYPSDIAVEWESNGQPENNYKTTPPVLDSDGSFFLYSKLTVDKSRWQQGNVFSCSVMHEALHNRYTQKSLSLSP heavy 2: not shown light: DIVMTQSPLSLPVTPGEPASISCQASESLVHSNRNTYLHWYLQKPGQSPQLLIYKVSNRFSGVPDRFSGSGSGTDFTLKISRVEAEDVGVYYCSQNTHVPPTFGQGTKVEIERTVAAPSVFIFPPSDEQLKSGTASVVCLLNNFYPREAKVQWKVDNALQSGNSQESVTEQDSKDSTYSLSSTLTLSKADYEKHKVYACEVTHQGLSSPVTKSFNRGEC",–,–,–,"11 relative, GpH7-A5/GpH7-B3/GpL16-k0 = 100",–
"GpH7-TA7/GpH7-TA45/GpL16-k0 (antibody, human IgG1, kappa, the chains differ only in D356K/H435R against K439E) heavy 1: QVQLVQSGAEVKKPGASVTVSCKASGYTFTDYEMHWIRQPPGEGLEWIGAIDPKTGDTAYSESFQDRVTLTADKSTSTAYMELSSLTSEDTAVYYCTRFYSYTYWGQGTLVTVSSASTKGPSVFPLAPSSKSTSGGTAALGCLVKDYFPEPVTVSWNSGALTSGVHTFPAVLQSSGLYSLSSVVTVPSSSLGTQTYICNVNHKPSNTKVDKKVEPKSCDKTHTCPPCPAPEYLWGPSVFLFPPKPKDTLMISRTPEVTCVVVDVSHEDPEVKFNWYVDGVEVHNAKTKPREEQYNATYRVVSVLTVLHQDWLNGKEYKCKVSNKALPAPIEKTISKAKGQPREPQVYTLPPSRKELTKNQVSLTCLVKGFYPSDIAVEWESNGQPENNYKTTPPVLDSDGSFFLYSKLTVDKSRWQQGNVFSCSVMHEALHNRYTQKSLSLSP heavy 2: QVQLVQSGAEVKKPGASVTVSCKASGYTFTDYEMHWIRQPPGEGLEWIGAIDPKTGDTAYSESFQDRVTLTADKSTSTAYMELSSLTSEDTAVYYCTRFYSYTYWGQGTLVTVSSASTKGPSVFPLAPSSKSTSGGTAALGCLVKDYFPEPVTVSWNSGALTSGVHTFPAVLQSSGLYSLSSVVTVPSSSLGTQTYICNVNHKPSNTKVDKKVEPKSCDKTHTCPPCPAPEYLWGPSVFLFPPKPKDTLMISRTPEVTCVVVDVSHEDPEVKFNWYVDGVEVHNAKTKPREEQYNATYRVVSVLTVLHQDWLNGKEYKCKVSNKALPAPIEKTISKAKGQPREPQVYTLPPSRDELTKNQVSLTCLVKGFYPSDIAVEWESNGQPENNYKTTPPVLDSDGSFFLYSKLTVDKSRWQQGNVFSCSVMHEALHNHYTQESLSLSP light: DIVMTQSPLSLPVTPGEPASISCQASESLVHSNRNTYLHWYLQKPGQSPQLLIYKVSNRFSGVPDRFSGSGSGTDFTLKISRVEAEDVGVYYCSQNTHVPPTFGQGTKVEIERTVAAPSVFIFPPSDEQLKSGTASVVCLLNNFYPREAKVQWKVDNALQSGNSQESVTEQDSKDSTYSLSSTLTLSKADYEKHKVYACEVTHQGLSSPVTKSFNRGEC",0.37,0.49,"48 relative, GpH7-A5/GpH7-B3/GpL16-k0 = 100",–,3300
"GpH7-A5/GpH7-TA45/GpL16-k0 (antibody, human IgG1, kappa, Heterodimerized anti-glypican-3 IgG1 variant) heavy 1: not shown heavy 2: QVQLVQSGAEVKKPGASVTVSCKASGYTFTDYEMHWIRQPPGEGLEWIGAIDPKTGDTAYSESFQDRVTLTADKSTSTAYMELSSLTSEDTAVYYCTRFYSYTYWGQGTLVTVSSASTKGPSVFPLAPSSKSTSGGTAALGCLVKDYFPEPVTVSWNSGALTSGVHTFPAVLQSSGLYSLSSVVTVPSSSLGTQTYICNVNHKPSNTKVDKKVEPKSCDKTHTCPPCPAPEYLWGPSVFLFPPKPKDTLMISRTPEVTCVVVDVSHEDPEVKFNWYVDGVEVHNAKTKPREEQYNATYRVVSVLTVLHQDWLNGKEYKCKVSNKALPAPIEKTISKAKGQPREPQVYTLPPSRDELTKNQVSLTCLVKGFYPSDIAVEWESNGQPENNYKTTPPVLDSDGSFFLYSKLTVDKSRWQQGNVFSCSVMHEALHNHYTQESLSLSP light: DIVMTQSPLSLPVTPGEPASISCQASESLVHSNRNTYLHWYLQKPGQSPQLLIYKVSNRFSGVPDRFSGSGSGTDFTLKISRVEAEDVGVYYCSQNTHVPPTFGQGTKVEIERTVAAPSVFIFPPSDEQLKSGTASVVCLLNNFYPREAKVQWKVDNALQSGNSQESVTEQDSKDSTYSLSSTLTLSKADYEKHKVYACEVTHQGLSSPVTKSFNRGEC",–,–,"225 relative, GpH7-A5/GpH7-B3/GpL16-k0 = 100",–,–
"GpH7-TA8/GpH7-B3/GpL16-k0 (antibody, human IgG1, kappa, Heterodimerized anti-glypican-3 IgG1 variant) heavy 1: QVQLVQSGAEVKKPGASVTVSCKASGYTFTDYEMHWIRQPPGEGLEWIGAIDPKTGDTAYSESFQDRVTLTADKSTSTAYMELSSLTSEDTAVYYCTRFYSYTYWGQGTLVTVSSASTKGPSVFPLAPSSKSTSGGTAALGCLVKDYFPEPVTVSWNSGALTSGVHTFPAVLQSSGLYSLSSVVTVPSSSLGTQTYICNVNHKPSNTKVDKKVEPKSCDKTHTCPPCPAPEYLWGPSVFLFPPKPKDTLMISRTPEVTCVVVDVSHEDPEVKFNWYVDGVEVHNAKTKPREEQYNATYRVVSVLTVLHQDWLNGKEYKCKVSNKALRAPIEKTISKAKGQPREPQVYTLPPSRKELTKNQVSLTCLVKGFYPSDIAVEWESNGQPENNYKTTPPVLDSDGSFFLYSKLTVDKSRWQQGNVFSCSVMHEALHNRYTQKSLSLSP heavy 2: not shown light: DIVMTQSPLSLPVTPGEPASISCQASESLVHSNRNTYLHWYLQKPGQSPQLLIYKVSNRFSGVPDRFSGSGSGTDFTLKISRVEAEDVGVYYCSQNTHVPPTFGQGTKVEIERTVAAPSVFIFPPSDEQLKSGTASVVCLLNNFYPREAKVQWKVDNALQSGNSQESVTEQDSKDSTYSLSSTLTLSKADYEKHKVYACEVTHQGLSSPVTKSFNRGEC",–,–,–,"150 relative, GpH7-A5/GpH7-B3/GpL16-k0 = 100",–
